Measurements published in patent US20240409906, “INTEGRASES, LANDING PAD ARCHITECTURES, AND ENGINEERED CELLS COMPRISING THE SAME” (Asimov Inc., published 2024).

Tests used:
Experiment in all cases: cell_activity; attB x attP EGFP inversion reporter, HEK293FT
Int21 = target: T1, Int21 (Streptococcus mitis B6); settings: tags: C-terminal GS linker-SV40 NLS
T1 chain: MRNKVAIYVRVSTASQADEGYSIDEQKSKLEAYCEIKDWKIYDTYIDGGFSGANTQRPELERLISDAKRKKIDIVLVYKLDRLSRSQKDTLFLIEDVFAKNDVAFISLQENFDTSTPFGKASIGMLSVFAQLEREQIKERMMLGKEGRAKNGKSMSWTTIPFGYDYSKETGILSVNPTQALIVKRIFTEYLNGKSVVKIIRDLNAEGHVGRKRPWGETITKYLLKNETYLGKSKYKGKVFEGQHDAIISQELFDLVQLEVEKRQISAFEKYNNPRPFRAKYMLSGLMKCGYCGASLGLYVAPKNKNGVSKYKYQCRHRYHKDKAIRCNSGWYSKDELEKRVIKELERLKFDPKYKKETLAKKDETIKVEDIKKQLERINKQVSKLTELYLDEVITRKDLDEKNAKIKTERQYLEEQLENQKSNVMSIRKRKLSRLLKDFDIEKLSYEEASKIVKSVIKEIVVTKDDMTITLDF

Int22 = target: T2, Int22 (Geobacillus thermoglucosidasius C56-YS93); settings: tags: C-terminal GS linker-SV40 NLS
T2 chain: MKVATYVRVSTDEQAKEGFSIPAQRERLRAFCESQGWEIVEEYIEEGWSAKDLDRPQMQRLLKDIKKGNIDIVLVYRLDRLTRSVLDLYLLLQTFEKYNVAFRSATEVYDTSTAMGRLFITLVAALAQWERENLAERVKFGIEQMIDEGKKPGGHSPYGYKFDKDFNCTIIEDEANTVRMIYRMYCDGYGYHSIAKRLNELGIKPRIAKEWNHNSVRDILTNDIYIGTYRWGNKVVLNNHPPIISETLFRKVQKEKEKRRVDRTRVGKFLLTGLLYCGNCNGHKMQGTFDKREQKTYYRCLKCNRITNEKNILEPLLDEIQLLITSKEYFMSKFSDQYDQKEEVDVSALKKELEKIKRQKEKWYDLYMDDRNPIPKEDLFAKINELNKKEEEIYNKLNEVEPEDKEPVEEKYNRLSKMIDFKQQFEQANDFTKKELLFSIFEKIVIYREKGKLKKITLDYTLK

Int4 = target: T3, Int4 (Streptococcus equi subsp. equi 4047); settings: tags: C-terminal GS linker-SV40 NLS
T3 chain: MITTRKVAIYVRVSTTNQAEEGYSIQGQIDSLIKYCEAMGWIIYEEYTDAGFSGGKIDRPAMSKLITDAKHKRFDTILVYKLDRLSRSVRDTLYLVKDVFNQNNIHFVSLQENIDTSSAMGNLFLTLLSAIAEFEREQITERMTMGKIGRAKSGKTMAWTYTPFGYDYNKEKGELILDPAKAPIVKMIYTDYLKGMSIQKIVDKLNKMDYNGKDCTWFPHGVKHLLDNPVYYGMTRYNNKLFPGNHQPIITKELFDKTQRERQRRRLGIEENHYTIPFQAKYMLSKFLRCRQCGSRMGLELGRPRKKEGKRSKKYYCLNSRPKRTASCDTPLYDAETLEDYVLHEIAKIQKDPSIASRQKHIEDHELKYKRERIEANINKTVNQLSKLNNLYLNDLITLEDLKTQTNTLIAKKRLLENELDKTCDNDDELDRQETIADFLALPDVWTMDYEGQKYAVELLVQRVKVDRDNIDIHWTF

Int23 = target: T4, Int23 (Clostridium difficile 630); settings: tags: C-terminal GS linker-SV40 NLS
T4 chain: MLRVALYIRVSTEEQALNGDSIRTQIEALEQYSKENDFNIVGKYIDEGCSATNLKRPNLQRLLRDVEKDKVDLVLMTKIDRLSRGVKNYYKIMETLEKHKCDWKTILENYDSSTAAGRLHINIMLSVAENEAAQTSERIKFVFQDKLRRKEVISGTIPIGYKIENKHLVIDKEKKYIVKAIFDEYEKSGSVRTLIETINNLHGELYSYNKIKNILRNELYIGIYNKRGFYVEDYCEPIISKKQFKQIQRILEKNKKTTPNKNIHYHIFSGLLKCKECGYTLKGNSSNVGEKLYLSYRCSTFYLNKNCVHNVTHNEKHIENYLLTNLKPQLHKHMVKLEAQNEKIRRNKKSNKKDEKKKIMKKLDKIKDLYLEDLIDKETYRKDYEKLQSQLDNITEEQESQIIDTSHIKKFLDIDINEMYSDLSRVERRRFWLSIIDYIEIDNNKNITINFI

Int26 = Int26 (Clostridium botulinum F str. Langeland); settings: tags: C-terminal GS linker-SV40 NLS
Int29 = target: T5, Int29 (Bacillus weihenstephanensis KBAB4); settings: tags: C-terminal GS linker-SV40 NLS; chain copies: 4
T5 chain: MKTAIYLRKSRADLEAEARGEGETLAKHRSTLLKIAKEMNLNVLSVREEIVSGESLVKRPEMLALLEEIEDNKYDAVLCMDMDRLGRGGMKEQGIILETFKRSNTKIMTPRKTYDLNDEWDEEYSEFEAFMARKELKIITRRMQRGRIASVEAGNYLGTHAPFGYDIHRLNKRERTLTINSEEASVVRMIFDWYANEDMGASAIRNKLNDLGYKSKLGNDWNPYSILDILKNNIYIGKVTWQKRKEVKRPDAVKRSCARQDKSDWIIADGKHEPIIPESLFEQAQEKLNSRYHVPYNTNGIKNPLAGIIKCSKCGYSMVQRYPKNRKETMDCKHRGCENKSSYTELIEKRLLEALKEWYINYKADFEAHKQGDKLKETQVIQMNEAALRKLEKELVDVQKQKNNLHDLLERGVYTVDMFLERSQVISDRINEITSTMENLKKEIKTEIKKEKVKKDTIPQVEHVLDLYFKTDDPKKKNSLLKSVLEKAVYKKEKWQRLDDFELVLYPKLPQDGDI

Int30 = target: T6, Int30 (Bacillus cereus AH187); settings: tags: C-terminal GS linker-SV40 NLS; chain copies: 4
T6 chain: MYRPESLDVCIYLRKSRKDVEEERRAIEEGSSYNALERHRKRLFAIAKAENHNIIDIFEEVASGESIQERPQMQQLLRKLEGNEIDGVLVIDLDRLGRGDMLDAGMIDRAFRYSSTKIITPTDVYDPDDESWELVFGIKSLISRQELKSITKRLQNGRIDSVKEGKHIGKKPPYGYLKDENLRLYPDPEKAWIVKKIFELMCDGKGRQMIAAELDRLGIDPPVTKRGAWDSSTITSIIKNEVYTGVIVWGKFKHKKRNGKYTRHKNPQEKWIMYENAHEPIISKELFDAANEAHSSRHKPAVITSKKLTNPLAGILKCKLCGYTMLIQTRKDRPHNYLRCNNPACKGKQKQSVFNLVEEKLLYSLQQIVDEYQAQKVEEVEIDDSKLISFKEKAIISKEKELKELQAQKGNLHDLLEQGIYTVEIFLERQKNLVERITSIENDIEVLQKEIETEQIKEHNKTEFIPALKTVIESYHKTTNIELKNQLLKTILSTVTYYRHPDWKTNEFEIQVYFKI

B1: Int21 attB (dsDNA)
DNA 1: TAGGAGGAAAAAATATGTATAATAAAGTTATCATGATTGGGCGTTTGACGTCTACACCAGAAT
DNA 2: ATTCTGGTGTAGACGTCAAACGCCCAATCATGATAACTTTATTATACATATTTTTTCCTCCTA
binding signal (Int21): 0.184 fraction of Bxb1

B2: Int21 attP (dsDNA)
DNA 1: GTTAATAATATGTATTTAAGTCTAACTTATCATGACAAATTTGACTAAAATACAAAAAGGC
DNA 2: GCCTTTTTGTATTTTAGTCAAATTTGTCATGATAAGTTAGACTTAAATACATATTATTAAC
binding signal (Int21): 0.184 fraction of Bxb1

B3: Int22 attB (dsDNA)
DNA 1: CAAGAAACGTTCCGTCTGTTTGTGTCAGCTGCGCGAAATTAATGACCGGATCGTTTGTTCC
DNA 2: GGAACAAACGATCCGGTCATTAATTTCGCGCAGCTGACACAAACAGACGGAACGTTTCTTG
binding signal (Int22): 0.945 fraction of Bxb1

B4: Int22 attP (dsDNA)
DNA 1: TTATAAACCTGTTTTAAAGTTAACTTTACATGCCTAACATTAACTCTTATACAGGTTAAGGT
DNA 2: ACCTTAACCTGTATAAGAGTTAATGTTAGGCATGTAAAGTTAACTTTAAAACAGGTTTATAA
binding signal (Int22): 0.945 fraction of Bxb1

B5: Int4 attB (dsDNA)
DNA 1: TTCCAAAGAGCGCCCAACGCGACCTGAAATTTGAATAAGACTGCTGCTTGTGTAAAGGCGATGATT
DNA 2: AATCATCGCCTTTACACAAGCAGCAGTCTTATTCAAATTTCAGGTCGCGTTGGGCGCTCTTTGGAA
binding signal (Int4): 1.85 fraction of Bxb1

B6: Int23 attB (dsDNA)
DNA 1: TATTCTAAGTAATGTAGTTTTACCACATCCACTAGGTCCGAGTAAACATAGAAATTCCCCT
DNA 2: AGGGGAATTTCTATGTTTACTCGGACCTAGTGGATGTGGTAAAACTACATTACTTAGAATA
binding signal (Int23): 0.201 fraction of Bxb1

B7: Int23 attP (dsDNA)
DNA 1: TATATAATTATTTGGACTAACATATAGTATCCACTTGGCTATTATTAGTTAGTCCAAATAAATA
DNA 2: TATTTATTTGGACTAACTAATAATAGCCAAGTGGATACTATATGTTAGTCCAAATAATTATATA
binding signal (Int23): 0.201 fraction of Bxb1

B8: Int26 attB (dsDNA)
DNA 1: AGAAATAGACCTTTCAACTGGACAAGGTGCTGATAAAACTATGCAGCAAGTCTTAAGTAAA
DNA 2: TTTACTTAAGACTTGCTGCATAGTTTTATCAGCACCTTGTCCAGTTGAAAGGTCTATTTCT
binding signal (Int26): 0.204 fraction of Bxb1

B9: Int26 attP (dsDNA)
DNA 1: AAATATAACCTGTGTATTGAAACAAGGTGCTGATAAAACCCTTTCATAAACACAAGTAAATA
DNA 2: TATTTACTTGTGTTTATGAAAGGGTTTTATCAGCACCTTGTTTCAATACACAGGTTATATTT
binding signal (Int26): 0.204 fraction of Bxb1

B10: Int4 attP (dsDNA)
DNA 1: CAAAAATTACAAAGTTTTCAACCCTTGATTTGAATTAGCGGTCAAATAATTTGTAATTCGTTT
DNA 2: AAACGAATTACAAATTATTTGACCGCTAATTCAAATCAAGGGTTGAAAACTTTGTAATTTTTG
binding signal (Int4): 1.85 fraction of Bxb1

B11: Int29 attB (dsDNA)
DNA 1: TTTGTAGCCATTAGGCGCATTAGGTTGACGCCATTAAGCCCTAAAGCATCATTCGTCGAAAC
DNA 2: GTTTCGACGAATGATGCTTTAGGGCTTAATGGCGTCAACCTAATGCGCCTAATGGCTACAAA
binding signal (Int29): 2.92 fraction of Bxb1

B12: Int29 attP (dsDNA)
DNA 1: CGTCACCTTGTTGGCGTAATTAGATTTACTCCAACAGGGTGATGACAAAGCTAATGAATTTT
DNA 2: AAAATTCATTAGCTTTGTCATCACCCTGTTGGAGTAAATCTAATTACGCCAACAAGGTGACG
binding signal (Int29): 2.92 fraction of Bxb1

B13: Int30 attB (dsDNA)
DNA 1: GTAATATGTTTGGATATGGGGAAGTGAATCAGTACAACCGCCACAGTACCCTCATGTCAGCC
DNA 2: GGCTGACATGAGGGTACTGTGGCGGTTGTACTGATTCACTTCCCCATATCCAAACATATTAC
binding signal (Int30): 1.29 fraction of Bxb1

B14: Int30 attP (dsDNA)
DNA 1: ATAATAGTGTATATGGTAGAGAATTAAACCAGTTTAATACTCCACCATGTACACGCAGTGAG
DNA 2: CTCACTGCGTGTACATGGTGGAGTATTAAACTGGTTTAATTCTCTACCATATACACTATTAT
binding signal (Int30): 1.29 fraction of Bxb1
